From US20230295308A1, “ANTAGONISTIC BIPARATOPIC ANTIBODIES THAT SPECIFICALLY BIND FIBROBLAST GROWTH FACTOR RECEPTOR 2 AND METHODS OF USING SAME” (The Broad Institute, Inc., priority 2020, published 2023) come the findings set out here.

“Also recorded” adds a separate entry of the source.

For assay [1], the target named is FGFR2 on SNU-16 gastric cancer cell line with FGFR2 amplification (UniProt P21802). In words: row 'Kd (nM) (FACS)'; FACS on SNU-16 cells.
Assay [2] has the same target. As to the kind of experiment: FACS on SNU-16 cells, % cells with FITC+ [cont.].
In assay [3] the target is FGFR2b alpha IIIb antigen (UniProt P21802). In words: SPR (Biacore), antibody on chip, FGFR2b alpha IIIb antigen.
Assay [4] deals with FGFR2 on SNU-16 gastric cancer cell line with FGFR2 amplification (UniProt P21802). As to the kind of experiment: FACS on SNU-16 cells, % No. of cells with FITC+ [cont.].
Assay [5] has as its target FGFR2b alpha IIIb antigen (UniProt P21802). As to the kind of experiment: SPR (Biacore), antibody immobilized, FGFR2b alpha IIIb in flow.
Assay [6] has as its target FGFR2 on SNU-16 gastric cancer cell line with FGFR2 amplification (UniProt P21802). As to the kind of experiment: FACS on SNU-16 cells, % cells with FITC+ against log antibody concentration; Kd printed in the legend box [cont.].
The test system of assay [7] is NIH3T3 cells overexpressing FGFR2-BICC1 fusion. In words: NIH3T3 FGFR2-BICC1 cell confluency, Incucyte (FIGS. 19A-19E). Format: cell-based. The settings on record: 60 hours, 0.013-1 μM. As for the experimental part: FIGS. 19A-19E present graphs showing the ability of biparatopic antibodies to impact FGFR2-fusion driven cell growth in NIH3T3 cells molecularly engineered to overexpress FGFR2-BICC1 fusion. […] The nomenclature of the biparatopic antibodies is based on the designations and descriptions of the parental antibodies presented in FIG. 7B.
The impact of biparatopic antibodies on FGFR2-fusion driven cell growth was assessed in a cell-based assay using biparatopic antibodies that bind to the ECD of FGFR2 and generated as described supra (Example 4). As described herein, the biparatopic antibodies were added to cultures of cells (e.g., NIH3T3 cells or BaF3 cells) molecularly engineered to overexpress FGFR2 fusion.
For assays using NIH3T3 cells, (FIGS. 19A-19E), NIH3T3 cells overexpressing a FGFR2-BICC1 fusion construct were plated in 384 black well plates at a concentration of 1000 cells/well overnight. 6 parental antibodies and 13 biparatopic antibodies were added to each well in duplicates at various concentrations ranging from 1 μM to 0.013 μM (1 μM, 0.833 μM, 0.600 μM, 0.450 μM, 0.316 μM, 0.233 μM, 0.166 μM, 0.125 μM, 0.091 μM, 0.066 μM, 0.048 μM, 0.035 μM, 0.025 μM, 0.018 μM, and 0.013 μM). The cell confluency was measured using Incucyte at 60 hours post treatment, and the IC50 curves were generated using non-linear fit in PRISM 9 software.

For assay [8], the target named is FGFR2b alpha IIIb antigen (UniProt P21802). In words: SPR (Biacore), KD matrix by the two arms; unit M from FIG. 17B and paragraph 180.
Assay [9] concerns FGFR2-PHDGH fusion expressing BaF3 cells. In words: growth of BaF3 cells expressing FGFR2-PHGDH fusion, absence of FGF ligands (FIG. 9). Format: cell-based. The settings on record: BaF3 FGFR2-PHGDH fusion. As for the experimental part: Antibodies A-F were tested to determine whether they could inhibit the ligand-induced growth of BaF3 cells expressing FGFR2IIIb. Antibodies C, D, and E, which bind FGFR2 Ig-2 and Ig-3, were effective in blocking ligand-induced growth of BaF3 cells expressing wild-type FGFR2IIIb (FIG. 8). The effects of antibodies A-F were then tested on BaF3 cells expressing FGFR2-PHDGH fusions. […] Antibody F inhibited the FGFR2-PHDGH activating fusion in BaF3 cells (FIG. 9).

Assay [10] has as its target FGFR2b alpha IIIb (Homo sapiens, UniProt P21802). As to the kind of experiment: Surface Plasmon Resonance (SPR) binding. The settings on record: FGFR2b alpha IIIb antigen. An excerpt:
FIGS. 17A-17C provide a schematic and tabular data related to assessments made to compare the avidity of biparatopic antibodies to that of their parental (bivalent monospecific) antibodies.
Surface Plasmon Resonance (SPR) as known in the art was used to determine the binding affinities of biparatopic antibodies. The SPR-based binding method involves immobilization of a ligand (antibody) on the surface of a sensor chip. The binding partner of interest or an analyte (FGFR2 ECD) flow through the flow channel. Different concentrations of an analyte flow over the ligand, and the interactions of ligand-analyte can be characterized. The SPR signal originates from changes in the refractive index of the […] at the surface of the sensor chip. The increase in mass associated with a binding event causes a proportional increase in the refractive index, which is observed as a change in response-resonance signal. In brief, for the experiments using the antibodies described herein, the SPR assay was carried out by immobilizing antibodies (used as […]) at a concentration ranging from 1-1000 nM and flow-through FGFR2b alpha IIIb antigen (used as […]). The antibody kinetic data for the interaction with FGFR2b alpha IIb antigen were fitted to the 2-state and 1-1 binding models using Biocore software. The mean and standard deviation KD values are derived from at least three independent runs.
Using SPR, the kinetics of 6 monospecific and 13 biparatopic antibodies for binding to a single antigen, FGFR2b alpha IIb, was measured so as to compare avidity of the biparatopic antibodies to their parental antibodies. Without wishing to be bound by theory, it was expected that the biparatopic antibodies would bind to the FGFR2 antigen more tightly than their parental antibodies and that the tighter binding biparatopic antibodies among the antibodies that were assessed would be more efficient in blocking FGFR2 dimerization (FIG. 17A), thereby leading to inhibition or blocking of constitutive FGFR2 signaling and/or oncogenic transformation. […]

Assay [11] deals with T1, 15AA-Nterm FGFR2.
T1 peptide: RPSFSLVEDTTLEPE
In words: row 'Kd (nM) (patent)', value quoted from the source patent; method: Indirect ELISA-15AA-Nterm FGFR2.

Chain of FGFR2b alpha IIIb (P21802 22-378 isoform P21802-3): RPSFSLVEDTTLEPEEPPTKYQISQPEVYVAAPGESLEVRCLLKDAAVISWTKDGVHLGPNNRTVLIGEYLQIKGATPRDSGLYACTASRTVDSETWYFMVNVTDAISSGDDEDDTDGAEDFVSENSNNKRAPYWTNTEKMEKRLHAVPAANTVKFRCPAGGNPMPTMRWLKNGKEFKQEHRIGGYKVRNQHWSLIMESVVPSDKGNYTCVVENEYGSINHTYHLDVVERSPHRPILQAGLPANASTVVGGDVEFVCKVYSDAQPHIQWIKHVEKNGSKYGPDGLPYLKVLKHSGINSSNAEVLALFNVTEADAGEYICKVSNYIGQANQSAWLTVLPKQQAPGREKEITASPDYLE

B1: 10164 (antibody, V domains shown)
VH: QVQLVESGGGLVKPGGSLRLSCAASGFTFSSYALSWVRQAPGKGLEWVGRIRSKIDGGTTDYAAPVKGRFTISRDDSKNTLYLQMNSLKTEDTAVYYCARDRSPSDSSAFAIWGQGTLVTVSS
VL: DIELTQPPSVSVSPGQTASITCSGDNLGSQYVDWYQQKPGQAPVLVIYDDNDRPSGIPERFSGSNSGNTATLTISGTQAEDEADYYCQSWDSLSVVFGGGTKLTVLG
notes: the duobody scheme implies IgG1 with K409R or F405L; also called Antibody C; N10164
For B1, the equilibrium dissociation constant (Kd) in assay [1] came to 0.13 nM; in assay [3], 1.7 nM; in assay [6], 0.13 nM. For the same molecule, the EC50 (read off the curve) in [2] and in [4] was 0.02 µg/mL throughout. Moreover, the Binding Stoichiometry in assay [5] was found to be 1.9.

B2: GE/N10: biparatopic antibody combining parental antibodies GE (Antibody D) and N10 (Antibody C) (antibody, V domains shown)
VH 1: EVQLVESGGGLVQPGGSLRLSCAASGFPFTSTGISWVRQAPGKGLEWVGRTHLGDGSTNYADSVKGRFTISADTSKNTAYLQMNSLRAEDTAVYYCARTYGIYDTYDMYTEYVMDYWGQGTLVTVSS
VL 1: DIQMTQSPSSLSASVGDRVTITCRASQDVDTSLAWYKQKPGKAPKLLIYSASFLYSGVPSRFSGSGSGTDFTLTISSLQPEDFATYYCQQSTGHPQTFGQGTKVEIK
VH 2: B1 VH
VL 2: B1 VL
For B2, the “inhibition of growth of NIH3T3 cells overexpressing FGFR2-BICC1 compared to parental antibodies” value (“inhibition … compared to parental antibodies” for short) in assay [7] is “more efficient and potent; also recorded: more effective and potent”.

B3: FGFR_GA/GE_FL (bispecific antibody, part only; not given: Constant regions with duobody mutation, part only)
heavy chain, GA arm, part: QVQLVQSGAEVKKPGSSVKVSCKASGYIFTTYNVHWVRQAPGQGLEWIGSIYPDNGDTSYNQNFKGRATITADKSTSTAYMELSSLRSEDTAVYYCARGDFAYWGQGTLVTVSS
light chain, GA arm: DIQMTQSPSSLSASVGDRVTITCKASQGVSNDYAWYQQKPGKAPKLLIYSASYRYTGVPSRFSGSGSGTDFTFTISSLQPEDIATYYCQQHSTTPYTFGQGTKLEIK
heavy chain, GE arm, part: B2 VH 1
light chain, GE arm: B2 VL 1
In assay [5], B3 came in with a Binding Stoichiometry of 1.2. The dissociation constant Kd in assay [5] and in assay [8] was 0.87 nM throughout.

B4: Biparatopic antibody GE/N12 (bispecific antibody, V domains shown)
VH 1: B2 VH 1
VL 1: B2 VL 1
VH 2: QVQLVQSGAEVKKPGESLKISCKGSGYSFTNYYIHWVRQMPGKGLEWMGAIYPDNSDTTYSPSFQGQVTISADKSISTAYLQWSSLKASDTAMYYCARGADIWGQGTLVTVSS
VL 2: DIQMTQSPSSLSASVGDRVTITCRASQDIDPYLSNWYQQKPGKAPKLLIYDASNLQSGVPSRFSGSGSGTDFTLTISSLQPEDFATYYCQQTTSHPYTFGQGTKVEIK
Take B4: the “inhibition … compared to parental antibodies” value in assay [7] is “more efficient and potent; also recorded: more effective and potent”. In assay [5], this molecule gave a Binding Stoichiometry of 1.3 and a Kd of 0.42 nM. Further, in assay [8], the Kd is 0.42 nM.

B5: M048-D01 (antibody, V domains shown)
VH: EVQLLESGGGLVQPGGSLRLSCAASGFTFSSYAMSWVRQAPGKGLEWVSAISGSGTSTYYADSVKGRFTISRDNSKNTLYLQMNSLRAEDTAVYYCARVRYNWNHGDWFDPWGQGTLVTVSS
VL: QSVLTQPPSASGTPGQRVTISCSGSSSNIGNNYVSWYQQLPGTAPKLLIYENYNRPAGVPDRFSGSKSGTSASLAISGLRSEDEADYYCSSWDDSLNYWVFGGGTKLTVLG
notes: Parental bivalent monospecific antibody; also called Antibody A; Bayer
With B5, the “agonist activity in the absence of FGF ligands” value in assay [9] is reported as “agonist activity”. Besides, the Kd in assay [10] was determined as 16 nM; in [1] it was 30.7 nM; in assay [3] it was 16 nM; in assay [11] it was 105 nM; in assay [6] it was 30.7 nM. Besides, the EC50 (read off the curve) worked out at 0.1 µg/mL in assay [2] and 4 µg/mL in assay [4]. The Binding Stoichiometry in assay [5] worked out at 1.7.

B6: Biparatopic antibody B/GE (bispecific antibody, V domains shown)
VH 1: B5 VH
VL 1: B5 VL
VH 2: B2 VH 1
VL 2: B2 VL 1
B6: in assay [7], the “inhibition … compared to parental antibodies” value is “more efficient and potent; also recorded: more effective and potent”. Besides, in assay [5], the Binding Stoichiometry came to 1.3 and the Kd was found to be 0.37 nM. The molecule also showed a Kd in [8] of 0.37 nM.
